Experimental data taken from patent US20210155689A1 (SHANGHAI PHARMAEXPLORER, published 2021).

What was measured:
[1] = biological target: T1, human LAG-3 (full length, on the cell surface) (human, UniProt P18627 23-525); experiment: FACS, HEK293-hLAG-3; 0.064 nM
T1 construct: Full-length human LAG-3 expressed on cells; also called HEK293-hLAG-3; HEK293 cells transfected with LAG-3 gene
T1 sequence: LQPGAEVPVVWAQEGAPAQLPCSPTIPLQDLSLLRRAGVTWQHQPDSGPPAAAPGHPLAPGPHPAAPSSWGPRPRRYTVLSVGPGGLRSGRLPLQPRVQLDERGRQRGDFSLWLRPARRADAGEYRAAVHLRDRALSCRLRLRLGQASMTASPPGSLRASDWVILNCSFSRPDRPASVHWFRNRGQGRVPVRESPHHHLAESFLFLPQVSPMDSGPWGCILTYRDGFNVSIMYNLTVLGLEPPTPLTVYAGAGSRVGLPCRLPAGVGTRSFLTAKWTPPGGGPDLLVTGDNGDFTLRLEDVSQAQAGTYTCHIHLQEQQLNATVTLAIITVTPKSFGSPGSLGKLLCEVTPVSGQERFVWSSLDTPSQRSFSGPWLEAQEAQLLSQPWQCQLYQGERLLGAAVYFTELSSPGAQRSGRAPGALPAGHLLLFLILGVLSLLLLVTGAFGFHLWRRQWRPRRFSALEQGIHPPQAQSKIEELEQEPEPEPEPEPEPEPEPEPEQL
Excerpt: (§1) The pIRES plasmid with the monkey-derived full-length gene was transfected into the HEK293 cell line to construct a HEK293 stable cell line containing monkey LAG-3 (herein referred to as HEK293-cLAG-3 stable cell line). The HEK293-hLAG-3 stable cell line and HEK293-cLAG-3 stable cell line were expanded in a T-75 cell culture flask to a 90% confluence. The medium was aspirated, and the cells were washed with HBSS (Hanks' Balanced Salt Solution) 1-2 times, then treated with a enzyme-free cell dissociation fluid (Versene solution: Life technology) and the cells were collected. The cells were washed with HBSS buffer for 1-2 times. After counted, the cells were diluted with HBSS to 1-2×10⁶ cells per ml, added with 1% goat serum blocking solution, incubated on ice for 20-30 minutes, and then washed with HBSS for 2 times by centrifugation. The collected cells were suspended in the FACS buffer (HBSS+1% BSA) to 2×10⁶ cells/ml, added as 100 microliters per well to a 96-well FACS reaction plate, added with 100 microliters per well of the antibody sample to be tested, incubated on ice for 1-2 hours. The plate was washed twice with the FACS buffer by centrifugation, added with 100 microliters of fluorescent (Alexa 488)-labeled secondary antibodies per well, and incubated on ice for 0.5-1.0 hours. The plate was washed 2-3 times with FACS buffer by centrifugation, added with 100 μl fixative solution (4% Paraformaldehyde) per well to suspend the cells. 5-10 minutes later, it was washed 1-2 times with FACS buffer by centrifugation. The cells were suspended with 100 microliters of FACS buffer, FACS (FACSCalibur, BD) was used for detection and the results were analyzed.

[2] = biological target: T1, human LAG-3 (full length, on the cell …); experiment: FACS, HEK293-hLAG-3; 1.600 nM
Excerpt: as §1

[3] = biological target: T1, human LAG-3 (full length, on the cell …); experiment: FACS, HEK293-hLAG-3; 8.000 nM
Excerpt: as §1

[4] = biological target: T2, mouse LAG-3 protein with hFc tag (mLAG-3-hFc protein) (mouse; human, UniProt Q61790 24-442); experiment: ELISA, mLAG-3-hFc coated; 0.0007 nM
T2 construct: Made in HEK293 cells; also called mouse LAG-3 extracellular domain protein; not shown: human IgG Fc fragment (hFc) of the pCpC vector
T2 sequence: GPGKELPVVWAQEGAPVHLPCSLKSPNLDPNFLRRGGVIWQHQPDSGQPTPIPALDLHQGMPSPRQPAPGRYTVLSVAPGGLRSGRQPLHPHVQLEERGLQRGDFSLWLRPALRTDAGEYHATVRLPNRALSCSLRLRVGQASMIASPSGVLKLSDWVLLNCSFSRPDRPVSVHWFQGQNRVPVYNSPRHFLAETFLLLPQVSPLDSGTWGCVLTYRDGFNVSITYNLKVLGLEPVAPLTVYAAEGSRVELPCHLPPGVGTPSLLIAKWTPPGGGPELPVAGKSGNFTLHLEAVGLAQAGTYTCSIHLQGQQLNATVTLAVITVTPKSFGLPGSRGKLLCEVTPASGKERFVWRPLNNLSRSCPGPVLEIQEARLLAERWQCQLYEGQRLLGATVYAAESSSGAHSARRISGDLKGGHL
Description: The plate was sealed with plastic film and incubated overnight at 4° C. The plate was washed 2 times with the plate washing solution (PBS+0.01% Tween20) on the next day, and added with the blocking solution (PBS+0.01% Tween20+1% BSA) and blocked at room temperature for 1-2 hours. The blocking solution was poured out, and the plate was added with 50-100 μl of the antibody sample to be tested to each well, incubated at 37° C. for 1-2 hours, and washed 2-3 times with a plate washing solution (PBS+0.01% Tween20). HRP (horseradish peroxidase) labeled secondary antibody was added, and the plate was incubated at 37° C. for 1-2 hours, and washed 2-3 times with a plate washing solution (PBS+0.01% Tween20). 100 μl of TMB substrate was added to each well. After incubated at room temperature for 15-30 minutes, the plate was added with 100 μl of stop solution (1.0N HCl) to each well.

Binder | Mean fluorescence intensity [1] | Mean fluorescence intensity [2] | Mean fluorescence intensity [3] | OD450 [4]
405B8H3 (mouse antibody purified from hybridoma) (antibody, V domains shown, also called mAb103-405B8H3; 405B81-13) VH: QVQLQQSGAELVRPGASVTLSCKASGYTFTDYEMHWVKQTPVHGLEWIGATDPETGNSAYNQKFKGKAIMTADKSSSTAYMELRSLTSEDSAVYYCISTGWNDWGQGTSLTVSS VL: DIKMTQSPSSMYASLGERVTITCKASQDINSYLSWFQQKPGKSPKTLIYRADRLLDGVPSRFSGSGSGQDYSLTISSLEYGDMGIYYCLQYDEFPYTFGGGTKLEIK | 8.7 MFI | 99.4 MFI | 252 MFI | –
409B11E12 (mouse antibody purified from hybridoma) (antibody, V domains shown, also called mAb104-409B11E12) VH: QVQLQQSGAELVRPGASVTLSCKASGYTFTDYEMHWVKQTTVHGLEWIGATDPETSYSAYNQKFKGKAILTADKSSSTAYMELRSLTSEDSAVYYCIATGWNDWGQGTSLTVSS VL: DLKMTQSPSSMYASLGERVTITCKASQDINSYLSWFQQKPGKSPKTLIYRANRLLDGVPSRFSGSGSGQDYSLTISSLEYEDMGIYYCLQYDEFPYTFGGGTKLEIK | 5 MFI | 55.6 MFI | 112 MFI | –
409D4E10 (mouse antibody purified from hybridoma) (antibody, V domains shown, also called mAb112-409D4E10) VH: QVQLQQSGAELVRPGASVTLSCKASGNTFTDYEMHWVKQTPVHGLEWIGATDPETDNTAYNQKFKGKAILTTDKSSSTAYMELRSLTSEDSAVYYCITSGWNDWGQGTSLTVSS VL: DIKMTQSPSSMYASLGERVTITCKASQDINSYLSWFQQKPGKSPKTLIYRANRLLDGVPSRFSGSGSGQDYSLTISSLEYEDMGIYYCLQYNEFPYTFGGGTKLEIK | 4.9 MFI | 48 MFI | 123 MFI | –
556F6B8 (mouse antibody purified from hybridoma) (antibody, V domains shown, also called mAb123-556F6B8) VH: RVQLKQSGPGLVQPSQSLSITCTVSGFSLIKYGVHWVRQSPGEGLEWLGVIWRGGITDYNAAFMSRLSITKDNSKSQVFFKMNSLQADDTAIYYCAKWDGPLAMDYWGQGTSVTVSS VL: DIVMTQSHKFLSTSVGDRVSITCKASQDVGTTVAWYQQKPGQSPKLLIYWASTRHTGVPDRFTGSGSGTDFTLTISNVQSEDLADYFCQQYSSYPYTFGGGTKLEIK | 6.8 MFI | 43.5 MFI | 74.9 MFI | –
105F1E10 (mouse antibody purified from hybridoma) (antibody, V domains shown, also called mAb009-105F1E10) VH: EVQLQQSGPELVKPGASVKMSCRASGYTFTDFKMHWMKQSHGKSLEWIGYIAPNNGGTAYNQKFRGKATLTVNESSNTAYMELRSLTSEDSAVYYCVDWDDVDYWGQGTTLTVSS VL: DIKMTQSPSSMYASLGERVTITCKASQDINSYLSWFQQKSGKSPKTLIYRANRLVDGVPSRFSGSGSGQDYSLTISSLEYEDMGIYYCLQYVEFPLTFGAGTKLELK | 8.6 MFI | 86.2 MFI | 235 MFI | –
105F1E10 (LAG-3 mouse-human chimeric antibody) (antibody, V domains shown) VH: EVQLQQSGPELVKPGASVKMSCRASGYTFTDFKMHWMKQSHGKSLEWIGYIAPNNGGTAYNQKFRGKATLTVNESSNTAYMELRSLTSEDSAVYYCVDWDDVDYWGQGTTLTVSS VL: DIKMTQSPSSMYASLGERVTITCKASQDINSYLSWFQQKSGKSPKTLIYRANRLVDGVPSRFSGSGSGQDYSLTISSLEYEDMGIYYCLQYVEFPLTFGAGTKLELK | – | – | – | 0.08 OD450
405B8H3 (LAG-3 mouse-human chimeric antibody) (antibody, V domains shown, also called mouse-human chimeric antibody 405B8H3) VH: QVQLQQSGAELVRPGASVTLSCKASGYTFTDYEMHWVKQTPVHGLEWIGATDPETGNSAYNQKFKGKAIMTADKSSSTAYMELRSLTSEDSAVYYCISTGWNDWGQGTSLTVSS VL: DIKMTQSPSSMYASLGERVTITCKASQDINSYLSWFQQKPGKSPKTLIYRADRLLDGVPSRFSGSGSGQDYSLTISSLEYGDMGIYYCLQYDEFPYTFGGGTKLEIK | – | – | – | 0.08 OD450
409B11E12 (LAG-3 mouse-human chimeric antibody) (antibody, V domains shown) VH: QVQLQQSGAELVRPGASVTLSCKASGYTFTDYEMHWVKQTTVHGLEWIGATDPETSYSAYNQKFKGKAILTADKSSSTAYMELRSLTSEDSAVYYCIATGWNDWGQGTSLTVSS VL: DLKMTQSPSSMYASLGERVTITCKASQDINSYLSWFQQKPGKSPKTLIYRANRLLDGVPSRFSGSGSGQDYSLTISSLEYEDMGIYYCLQYDEFPYTFGGGTKLEIK | – | – | – | 0.08 OD450
409D4E10 (LAG-3 mouse-human chimeric antibody) (antibody, V domains shown) VH: QVQLQQSGAELVRPGASVTLSCKASGNTFTDYEMHWVKQTPVHGLEWIGATDPETDNTAYNQKFKGKAILTTDKSSSTAYMELRSLTSEDSAVYYCITSGWNDWGQGTSLTVSS VL: DIKMTQSPSSMYASLGERVTITCKASQDINSYLSWFQQKPGKSPKTLIYRANRLLDGVPSRFSGSGSGQDYSLTISSLEYEDMGIYYCLQYNEFPYTFGGGTKLEIK | – | – | – | 0.13 OD450
556F6B8 (LAG-3 mouse-human chimeric antibody) (antibody, V domains shown, also called 556F8B8) VH: RVQLKQSGPGLVQPSQSLSITCTVSGFSLIKYGVHWVRQSPGEGLEWLGVIWRGGITDYNAAFMSRLSITKDNSKSQVFFKMNSLQADDTAIYYCAKWDGPLAMDYWGQGTSVTVSS VL: DIVMTQSHKFLSTSVGDRVSITCKASQDVGTTVAWYQQKPGQSPKLLIYWASTRHTGVPDRFTGSGSGTDFTLTISNVQSEDLADYFCQQYSSYPYTFGGGTKLEIK | – | – | – | 0.08 OD450
